Test results as given in the supplement of paper PMC9112550, “Optimization of the antimicrobial peptide Bac7 by deep mutational scanning” (BMC Biology, 2022).

system: Escherichia coli TOP10; assay: shrunken log2 fold change of peptide-encoding DNA abundance (4.5 h post-induction vs induction); higher = less antimicrobial activity (less host growth inhibition); conditions: time post-induction: 4.5 h; library: site-saturation at positions 5, 18, 19, 20
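Also: peptides expressed intracellularly from a pBAD plasmid library in pooled LB shake-flask culture, induced with 0.3% L-arabinose, DNA abundance read by NGS, three biological replicates, DESeq2 with apeglm shrinkage.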

First: RRIRDRPPRLPRPRPRPQGAPRP
Second: RRIRLRPPRLPRPRPRPWYPPRP
The “shrunken log2 fold change” value of the first is higher: 0.244 for the first, -0.242 for the second.

First: RRIRYRPPRLPRPRPRPRFWPRP
Second: RRIRQRPPRLPRPRPRPLGKPRP
The “shrunken log2 fold change” value of the first is higher: 0.184 for the first, -0.0227 for the second.

RRIRIRPPRLPRPRPRPEQYPRP and RRIRGRPPRLPRPRPRPFMVPRP are within 0.2 log units of each other in “shrunken log2 fold change” value: -0.0765 for the first, -0.131 for the second.

Compared with RRIRFRPPRLPRPRPRPQHVPRP, RRIRFRPPRLPRPRPRPQLFPRP is higher in “shrunken log2 fold change” value: -0.315 for the first, 0.104 for the second.

First: RRIRHRPPRLPRPRPRPCTRPRP
Second: RRIRCRPPRLPRPRPRPFQVPRP
The “shrunken log2 fold change” value of the first is higher: 0.0237 for the first, -0.335 for the second.

First: RRIRSRPPRLPRPRPRPGSEPRP
Second: RRIRTRPPRLPRPRPRPYAAPRP
The “shrunken log2 fold change” value of the first is higher: 0.593 for the first, -0.445 for the second.

First: RRIRLRPPRLPRPRPRPWFIPRP
Second: RRIRTRPPRLPRPRPRPILGPRP
The “shrunken log2 fold change” value of the first is lower: -0.738 for the first, 0.0438 for the second.

RRIRWRPPRLPRPRPRPCAPPRP and RRIRSRPPRLPRPRPRPHPGPRP are within 0.2 log units of each other in “shrunken log2 fold change” value: -0.0663 for the first, 0.00228 for the second.

Going from RRIRVRPPRLPRPRPRPYTLPRP to RRIRLRPPRLPRPRPRPSSTPRP, the “shrunken log2 fold change” value rises from -0.666 to -0.278.

RRIRKRPPRLPRPRPRPTQAPRP and RRIRNRPPRLPRPRPRPSIPPRP are within 0.2 log units of each other in “shrunken log2 fold change” value: -0.00908 for the first, -0.134 for the second.

Compared with RRIRIRPPRLPRPRPRPCYFPRP, RRIRWRPPRLPRPRPRPLPVPRP is higher in “shrunken log2 fold change” value: -0.906 for the first, -0.0992 for the second.

First: RRIRRRPPRLPRPRPRPKCEPRP
Second: RRIRNRPPRLPRPRPRPPKYPRP
The “shrunken log2 fold change” value of the first is higher: 0.0268 for the first, -0.349 for the second.

RRIRTRPPRLPRPRPRPSDQPRP and RRIRVRPPRLPRPRPRPMNHPRP are within 0.2 log units of each other in “shrunken log2 fold change” value: -0.183 for the first, -0.194 for the second.

First: RRIRARPPRLPRPRPRPMIEPRP
Second: RRIRDRPPRLPRPRPRPVIYPRP
The “shrunken log2 fold change” value of the first is higher: 0.314 for the first, 0.011 for the second.

RRIRGRPPRLPRPRPRPKYPPRP and RRIRERPPRLPRPRPRPHRPPRP are within 0.2 log units of each other in “shrunken log2 fold change” value: 0.0365 for the first, -0.123 for the second.

Compared with RRIRPRPPRLPRPRPRPDDGPRP, RRIRDRPPRLPRPRPRPHWWPRP is higher in “shrunken log2 fold change” value: -0.21 for the first, 0.272 for the second.

First: RRIRARPPRLPRPRPRPERTPRP
Second: RRIRLRPPRLPRPRPRPGDSPRP
The “shrunken log2 fold change” value of the first is higher: 0.143 for the first, -0.23 for the second.

First: RRIRIRPPRLPRPRPRPKGFPRP
Second: RRIRLRPPRLPRPRPRPPNYPRP
The “shrunken log2 fold change” value of the first is higher: 0.0347 for the first, -0.23 for the second.

Compared with RRIRNRPPRLPRPRPRPAGWPRP, RRIRHRPPRLPRPRPRPCWPPRP is lower in “shrunken log2 fold change” value: 0.558 for the first, -0.106 for the second.

RRIRHRPPRLPRPRPRPEVNPRP and RRIRYRPPRLPRPRPRPITSPRP are within 0.2 log units of each other in “shrunken log2 fold change” value: 0.062 for the first, 0.0314 for the second.

RRIRTRPPRLPRPRPRPVDLPRP and RRIRYRPPRLPRPRPRPRSNPRP are within 0.2 log units of each other in “shrunken log2 fold change” value: -0.0153 for the first, 0.00328 for the second.

Going from RRIRIRPPRLPRPRPRPDCYPRP to RRIRGRPPRLPRPRPRPPKQPRP, the “shrunken log2 fold change” value rises from -0.226 to 0.292.

Going from RRIRLRPPRLPRPRPRPLYSPRP to RRIRRRPPRLPRPRPRPLFCPRP, the “shrunken log2 fold change” value rises from -1.1 to 0.24.

Compared with RRIRMRPPRLPRPRPRPMDTPRP, RRIRERPPRLPRPRPRPSYEPRP is lower in “shrunken log2 fold change” value: -0.00187 for the first, -0.499 for the second.

Going from RRIRTRPPRLPRPRPRPFDLPRP to RRIRNRPPRLPRPRPRPKEAPRP, the “shrunken log2 fold change” value rises from -0.29 to -0.00208.

RRIRIRPPRLPRPRPRPTCRPRP and RRIRTRPPRLPRPRPRPVAHPRP are within 0.2 log units of each other in “shrunken log2 fold change” value: -0.103 for the first, -0.0854 for the second.

Compared with RRIRSRPPRLPRPRPRPGCRPRP, RRIRTRPPRLPRPRPRPHEYPRP is lower in “shrunken log2 fold change” value: 0.293 for the first, -0.17 for the second.

RRIRKRPPRLPRPRPRPWWPPRP and RRIRTRPPRLPRPRPRPTWFPRP are within 0.2 log units of each other in “shrunken log2 fold change” value: 0.0304 for the first, -0.0683 for the second.

Compared with RRIRWRPPRLPRPRPRPQITPRP, RRIRARPPRLPRPRPRPARRPRP is higher in “shrunken log2 fold change” value: -0.216 for the first, 0.388 for the second.

Going from RRIRARPPRLPRPRPRPLMFPRP to RRIRIRPPRLPRPRPRPQAPPRP, the “shrunken log2 fold change” value falls from 0.187 to -0.331.

RRIRCRPPRLPRPRPRPVEVPRP and RRIRQRPPRLPRPRPRPVTTPRP are within 0.2 log units of each other in “shrunken log2 fold change” value: -0.0243 for the first, 0.0606 for the second.

First: RRIRGRPPRLPRPRPRPLPTPRP
Second: RRIRFRPPRLPRPRPRPTSKPRP
The “shrunken log2 fold change” value of the first is higher: 1.14 for the first, -0.191 for the second.

RRIRSRPPRLPRPRPRPYTKPRP and RRIRLRPPRLPRPRPRPFGQPRP are within 0.2 log units of each other in “shrunken log2 fold change” value: -0.202 for the first, -0.11 for the second.

RRIRIRPPRLPRPRPRPPGPPRP and RRIRYRPPRLPRPRPRPEVWPRP are within 0.2 log units of each other in “shrunken log2 fold change” value: 0.575 for the first, 0.446 for the second.

Compared with RRIRLRPPRLPRPRPRPANHPRP, RRIRIRPPRLPRPRPRPYDFPRP is higher in “shrunken log2 fold change” value: -0.333 for the first, 0.126 for the second.

Compared with RRIRVRPPRLPRPRPRPQEMPRP, RRIRCRPPRLPRPRPRPALGPRP is higher in “shrunken log2 fold change” value: 0.0818 for the first, 0.38 for the second.

First: RRIRGRPPRLPRPRPRPGFRPRP
Second: RRIRCRPPRLPRPRPRPLMYPRP
The “shrunken log2 fold change” value of the first is higher: 0.399 for the first, -0.606 for the second.

RRIRERPPRLPRPRPRPLLWPRP and RRIRARPPRLPRPRPRPWWRPRP are within 0.2 log units of each other in “shrunken log2 fold change” value: -0.0136 for the first, 0.0229 for the second.

First: RRIRGRPPRLPRPRPRPLAPPRP
Second: RRIRNRPPRLPRPRPRPNVDPRP
The “shrunken log2 fold change” value of the first is higher: 0.998 for the first, 0.112 for the second.

First: RRIRKRPPRLPRPRPRPMWHPRP
Second: RRIRVRPPRLPRPRPRPLPYPRP
The “shrunken log2 fold change” value of the first is higher: -0.183 for the first, -0.587 for the second.

Going from RRIRHRPPRLPRPRPRPSMLPRP to RRIRCRPPRLPRPRPRPGIGPRP, the “shrunken log2 fold change” value rises from -0.539 to 0.295.

RRIRSRPPRLPRPRPRPDIQPRP and RRIRQRPPRLPRPRPRPCAMPRP are within 0.2 log units of each other in “shrunken log2 fold change” value: -0.274 for the first, -0.0872 for the second.

First: RRIRHRPPRLPRPRPRPHLHPRP
Second: RRIRRRPPRLPRPRPRPPSCPRP
The “shrunken log2 fold change” value of the first is lower: -0.513 for the first, 0.301 for the second.

Going from RRIRFRPPRLPRPRPRPRPDPRP to RRIRLRPPRLPRPRPRPNWNPRP, the “shrunken log2 fold change” value falls from 0.282 to -0.386.

Compared with RRIRMRPPRLPRPRPRPHIMPRP, RRIRSRPPRLPRPRPRPWQFPRP is higher in “shrunken log2 fold change” value: -0.422 for the first, 0.0527 for the second.

Going from RRIRQRPPRLPRPRPRPNLRPRP to RRIRRRPPRLPRPRPRPARRPRP, the “shrunken log2 fold change” value rises from 0.0769 to 0.546.

RRIRFRPPRLPRPRPRPGHSPRP and RRIRARPPRLPRPRPRPNSAPRP are within 0.2 log units of each other in “shrunken log2 fold change” value: -0.0168 for the first, 0.00853 for the second.

Compared with RRIRSRPPRLPRPRPRPDDMPRP, RRIRIRPPRLPRPRPRPKYEPRP is lower in “shrunken log2 fold change” value: 0.0939 for the first, -0.83 for the second.

Going from RRIRGRPPRLPRPRPRPTTCPRP to RRIRNRPPRLPRPRPRPTDIPRP, the “shrunken log2 fold change” value falls from 0.849 to -0.296.

RRIRWRPPRLPRPRPRPHFRPRP and RRIRDRPPRLPRPRPRPTTVPRP are within 0.2 log units of each other in “shrunken log2 fold change” value: 0.0695 for the first, 0.258 for the second.

First: RRIRARPPRLPRPRPRPSNDPRP
Second: RRIRPRPPRLPRPRPRPYTFPRP
The “shrunken log2 fold change” value of the first is higher: -0.213 for the first, -0.504 for the second.

Going from RRIRTRPPRLPRPRPRPTTQPRP to RRIRDRPPRLPRPRPRPNARPRP, the “shrunken log2 fold change” value rises from -0.338 to 0.299.

Compared with RRIRHRPPRLPRPRPRPFNDPRP, RRIRIRPPRLPRPRPRPPPKPRP is higher in “shrunken log2 fold change” value: -0.01 for the first, 0.46 for the second.

RRIRQRPPRLPRPRPRPMDMPRP and RRIRSRPPRLPRPRPRPFFLPRP are within 0.2 log units of each other in “shrunken log2 fold change” value: -0.274 for the first, -0.16 for the second.

For RRIRERPPRLPRPRPRPVDDPRP, the “shrunken log2 fold change” value was 0.133.
